This is an account of results in patent US20080064052A1, “Crystal of a Receptor-Ligand Complex and methods of use” (priority 2006, published 2008).

For assay [1], the target named is T1, human EphB4 ephrin-binding domain, EphB4 (17-196) (human, UniProt P54760 17-196).
T1 sequence: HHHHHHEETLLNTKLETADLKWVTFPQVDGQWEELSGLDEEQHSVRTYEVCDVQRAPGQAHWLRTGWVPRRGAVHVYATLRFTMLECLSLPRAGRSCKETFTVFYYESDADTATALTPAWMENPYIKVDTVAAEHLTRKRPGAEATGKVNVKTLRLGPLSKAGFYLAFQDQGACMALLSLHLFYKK
In words: ITC at 25 °C, peptide injected into human EphB4 (17-196). The procedure: (§1) Isothermal titration calorimetry and ELISA experiments: EphB4and ephrin-B2 were either dialyzed or buffer exchanged into 50 mM Tris-Cl (pH 7.8 at 25° C.), 150 mM NaCl, 1 mM CaCl₂, prior to use in calorimetry experiments. Peptides were dissolved into the same buffer used for the dialysis of EphB4. The concentration of EphB4, ephrin-B2 and the peptides was determined by measuring the A₂₈₀ and using the theoretical-extinction coefficient (Gill and von Hippel, 1989). ITC experiments were performed with a Microcal MCS ITC at 25° C. Following an initial injection of 2 μl, titrations were performed by making 20 13 μl injections of peptide into EphB4 in the sample cell to produce an approximate final 2:1 ratio of injectant to sample in the cell. For most titrations the sample cell contained 15 μM EphB4 and the injection syringe contained a 200 μM solution of the peptide. Titrations with ephrin-B2 contained 13 μM EphB4 in the sample cell and 290 μM ephrin-B2 in the syringe. Prior to loading the sample cell, EphB4 was centrifuged at 18,000 g for 5 min at 4° C. to remove aggregates and degassed for 5 minutes at room temperature. Corrections for heats of dilution for the peptides and ephrin-B2 were determined by performing titrations of peptide or ephrin-B2 solutions into buffer. Dilution data were fit to a line and subtracted from the corresponding titration data. Titration data were analyzed using Origin ITC software (Version 5.0, Microcal Software Inc.) and curves were fit to a single binding site model (Wiseman et al., 1989). […] A lower limit for the binding constant was determined by performing a titration in which the sample cell contained 30 μM EphB4 and the injection syringe contained a 1.45 mM solution of the peptide, producing a final ratio of peptide to EphB4 of 10:1. The data was fit assuming a stoichiometry of 1 and at least 60% saturation of binding at the final peptide concentration (Turnbull and Daranas, 2003).

The target of assay [2] is T2, mouse EphB4 ectodomain Fc fusion protein (mouse EphB4-Fc-His, R&D Systems) (mouse, UniProt P54761 16-539).
T2 construct: extracellular domain; also called murine EphB4; not shown: Fc part of a bought fusion protein; His tag of the bought protein
T2 sequence (looked up): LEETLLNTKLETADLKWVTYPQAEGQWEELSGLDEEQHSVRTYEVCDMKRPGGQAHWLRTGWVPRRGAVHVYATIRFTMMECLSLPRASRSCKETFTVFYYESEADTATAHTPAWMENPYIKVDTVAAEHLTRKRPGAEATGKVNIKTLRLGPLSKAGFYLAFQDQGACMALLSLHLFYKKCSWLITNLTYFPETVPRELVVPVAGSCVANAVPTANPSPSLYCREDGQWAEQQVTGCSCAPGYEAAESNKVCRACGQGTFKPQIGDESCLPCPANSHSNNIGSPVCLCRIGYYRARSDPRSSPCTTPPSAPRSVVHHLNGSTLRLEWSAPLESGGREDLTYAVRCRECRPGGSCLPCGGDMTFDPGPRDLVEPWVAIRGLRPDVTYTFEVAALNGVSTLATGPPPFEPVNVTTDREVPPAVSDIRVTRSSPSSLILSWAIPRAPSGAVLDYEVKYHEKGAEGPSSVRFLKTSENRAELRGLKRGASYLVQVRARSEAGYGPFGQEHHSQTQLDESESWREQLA
Briefly: competition ELISA: inhibition of mouse ephrin-B2 AP binding to immobilized mouse EphB4 ectodomain Fc. The procedure: (§2) The ability of peptides to compete the binding of mouse ephrin-B2 alkaline phosphatase to immobilized mouse EphB4-Fc-His (R&D Systems) was measured by ELISA as previously described (Koolpe et al., 2005).
A general note: An ELISA detects its analyte on a solid surface through an enzyme-linked reagent.

The target of assay [3] is T2, mouse EphB4 ectodomain Fc fusion …. Briefly: competition ELISA: inhibition of mouse ephrin-B2 AP binding to immobilized mouse EphB4 ectodomain Fc; text sentence that cites Table 1A; same ELISA. The procedure: as §2
For assay [4], the target named is T1, human EphB4 ephrin-binding domain, …. Briefly: ITC at 25 °C. The procedure:
(§3) Experiments were performed at 25° C. in 50 mM Tris pH 7.8, 150 mM NaCl, 1 mM CaCl₂.
as §1, with “For most titrations the sample cell contained 15 μM EphB4 and the injection syringe contained a 200 μM solution of the peptide. Titrations with ephrin-B2 contained 13 μM EphB4 in the sample cell and 290 μM ephrin-B2 in the syringe. Prior to loading the sample cell, EphB4 was centrifuged at 18,000 g for 5 min at 4° C. to remove aggregates and degassed for 5 minutes at room temperature.” left out, “Dilution data were fit to a line and subtracted from the corresponding titration data.” left out, “10:1.” for “10:1. The data was fit assuming a stoichiometry of 1 and at least 60% saturation of binding at the final peptide concentration (Turnbull and Daranas, 2003).”

Assay [5] has the same target. Briefly: ITC at 25 °C, 1.45 mM peptide injected into 30 µM human EphB4 (17-196). The procedure:
as §3
as §1, with “For most titrations the sample cell contained 15 μM EphB4 and the injection syringe contained a 200 μM solution of the peptide. Titrations with ephrin-B2 contained 13 μM EphB4 in the sample cell and 290 μM ephrin-B2 in the syringe. Prior to loading the sample cell, EphB4 was centrifuged at 18,000 g for 5 min at 4° C. to remove aggregates and degassed for 5 minutes at room temperature.” left out, “Dilution data were fit to a line and subtracted from the corresponding titration data.” left out, “10:1.” for “10:1. The data was fit assuming a stoichiometry of 1 and at least 60% saturation of binding at the final peptide concentration (Turnbull and Daranas, 2003).”

For assay [6] the target is unchanged. In words: ITC at 25 °C, 290 µM ephrin-B2 injected into 13 µM human EphB4 (17-196). As for the experimental part: as §3
as §1, with “10:1.” for “10:1. The data was fit assuming a stoichiometry of 1 and at least 60% saturation of binding at the final peptide concentration (Turnbull and Daranas, 2003).”

B1: TNYL-RAW peptide (TNYLFSPNGPIARAW) (peptide)
peptide: TNYLFSPNGPIARAW
notes: Synthetic 15-mer (Biopeptide, Inc.); Peptide positions are printed as P1 to P15; also called antagonistic peptide
For B1, in assay [1], binding was put at a Kd of 71 nM, the TΔS is -4.9 kcal/mol, the ΔG is -9.8 kcal/mol and the ΔH was -14.7 kcal/mol. In assay [2], this molecule had an IC50 of 0.015 µM. The IC50 in assay [3] is ~15 nM.

B2: LFSP-RAW peptide (LFSPNGPIARAW) (peptide)
peptide: LFSPNGPIARAW
notes: TNYL-RAW without Thr-P1, Asn-P2 and Tyr-P3
Consider B2, for which the “fold reduction in affinity (against the peptides that keep Tyr-P3)” value in assay [4] amounted to 40 fold. Further, in assay [1], the Kd was 3500 nM, the TΔS turned out to be 2.1 kcal/mol, the ΔG was -7.4 kcal/mol and the ΔH is -5.3 kcal/mol. The IC50 in assay [2] is ~15 µM.

On to TNYLFSPNGPIA [TNYL peptide (TNYLFSPNGPIA)], for which the ΔH in assay [5] is -9.6 kcal/mol. The molecule also yielded an IC50 in assay [2] of 150 µM.

B3: Eph-binding domain of human ephrin-B2 (ligand)
chain: IVLEPIYWNSSNSKFLPGQGLVLYPQIGDKLDIICPKVDSKTVGQYEYYKVYMVDKDQADRCTIKKENTPLLNCAKPDQDIKFTIKFQEFSPNLWGLEFQKNKDYYIISTSNGSLEGLDNQEGGVCQTRAMKILMKVG
Consider B3, for which, in assay [6], the affinity, expressed as Kd, was 40 nM; the TΔS came to 13.4 kcal/mol; the ΔG is -10.2 kcal/mol; the ΔH stood at 3.3 kcal/mol.

A word on the Kd: it is the free concentration of one partner at which half of the binding sites on the other are occupied at equilibrium, for simple one-to-one binding. Broadly, the IC50 is the concentration needed to halve the response being measured. Read a high IC50 as a need for much substance.
